Experimental data reported in patent publication US20140248295A1 (ROCKEFELLER UNIVERSITY, published 2014).

Target: T1, Recombinant sCD4 comprising the full-length extracellular domain of human CD4 (human, UniProt P01730 26-396)
T1 construct: also called human sCD4 protein; CD4 protein
Experiment: SPR (Biacore), antibody on CM5 chip by amine coupling, sCD4 as analyte, 25 C
Method: Binding affinity analyses were performed with a T3000 instrument (GE Healthcare, Piscataway, N.J.). […] Briefly, carboxyl groups on the sensor chip surface were activated by injection of a solution containing 0.2 M EDC and 0.05 M NHS. Next, sCD4 protein in 10 mM NaOAc buffer (pH5) was flowed over the chip surface until the desired level of response units was achieved. After unreacted protein was washed out, excess active ester groups on the sensor surface were capped by the injection of 1 M ethanolamine, pH 8.0. Binding experiments were performed at 25° C. in HBS-EP buffer (GE Healthcare). Binding kinetics were measured by passing various concentrations of human sCD4 protein over the chip surface. For kinetics data analysis, the kinetic parameters ([…], association rate constant; koff, dissociation rate constant; KD, equilibrium dissociation constant) were determined by collectively fitting the overlaid sensograms using the BIAevaluation 4.1 software.
CD4 binding affinities of these mutant antibodies were examined using surface plasmon resonance.

B1: Ibalizumab light chain mutant LM30E (antibody, human IgG1, kappa, V domains shown)
VH: QVQLQQSGPEVVKPGASVKMSCKASGYTFTSYVIHWVRQKPGQGLDWIGYINPYNDGTDYDEKFKGKATLTSDTSTSTAYMELSSLRSEDTAVYYCAREKDNYATGAWFAYWGQGTLVTVSS
VL: DIVMTQSPDSLAVSLGERVTMNCKSSQSLLYSTNNATYLAWYQQKPGQSPKLLIYWASTRESGVPDRFSGSGSGTDFTLTISSVQAEDVAVYYCQQYYSYRTFGGGTKLEIKR
- Kd: 1.3 nM

B2: Ibalizumab light chain mutant LM76 (antibody, human IgG1, kappa, V domains shown)
VH: QVQLQQSGPEVVKPGASVKMSCKASGYTFTSYVIHWVRQKPGQGLDWIGYINPYNDGTDYDEKFKGKATLTSDTSTSTAYMELSSLRSEDTAVYYCAREKDNYATGAWFAYWGQGTLVTVSS
VL: DIVMTQSPDSLAVSLGERVTMNCKSSQSLLYSTNQKNYLAWYQQKPGQSPKLLIYWASTRESGVPDRFSGSGSGTDFTLTINATQAEDVAVYYCQQYYSYRTFGGGTKLEIKR
- Kd: 0.28 nM

B3: Ibalizumab light chain mutant LM60 (antibody, human IgG1, kappa, V domains shown)
VH: QVQLQQSGPEVVKPGASVKMSCKASGYTFTSYVIHWVRQKPGQGLDWIGYINPYNDGTDYDEKFKGKATLTSDTSTSTAYMELSSLRSEDTAVYYCAREKDNYATGAWFAYWGQGTLVTVSS
VL: DIVMTQSPDSLAVSLGERVTMNCKSSQSLLYSTNQKNYLAWYQQKPGQSPKLLIYWASTRESGVPNATSGSGSGTDFTLTISSVQAEDVAVYYCQQYYSYRTFGGGTKLEIKR
- Kd: 0.19 nM

B4: Ibalizumab light chain mutant LM52 (antibody, human IgG1, kappa, V domains shown)
VH: QVQLQQSGPEVVKPGASVKMSCKASGYTFTSYVIHWVRQKPGQGLDWIGYINPYNDGTDYDEKFKGKATLTSDTSTSTAYMELSSLRSEDTAVYYCAREKDNYATGAWFAYWGQGTLVTVSS
VL: DIVMTQSPDSLAVSLGERVTMNCKSSQSLLYSTNQKNYLAWYQQKPGQSPKLLIYWANSTESGVPDRFSGSGSGTDFTLTISSVQAEDVAVYYCQQYYSYRTFGGGTKLEIKR
notes: also called iMab-LM52; Ibalizumab LM52
- Kd: 0.35 nM

B5: Ibalizumab light chain mutant LM67 (antibody, human IgG1, kappa, V domains shown)
VH: QVQLQQSGPEVVKPGASVKMSCKASGYTFTSYVIHWVRQKPGQGLDWIGYINPYNDGTDYDEKFKGKATLTSDTSTSTAYMELSSLRSEDTAVYYCAREKDNYATGAWFAYWGQGTLVTVSS
VL: DIVMTQSPDSLAVSLGERVTMNCKSSQSLLYSTNQKNYLAWYQQKPGQSPKLLIYWASTRESGVPDRFSGSGNATDFTLTISSVQAEDVAVYYCQQYYSYRTFGGGTKLEIKR
- Kd: 0.8 nM

B6: Ibalizumab light chain mutant LM53 (antibody, human IgG1, kappa, V domains shown)
VH: QVQLQQSGPEVVKPGASVKMSCKASGYTFTSYVIHWVRQKPGQGLDWIGYINPYNDGTDYDEKFKGKATLTSDTSTSTAYMELSSLRSEDTAVYYCAREKDNYATGAWFAYWGQGTLVTVSS
VL: DIVMTQSPDSLAVSLGERVTMNCKSSQSLLYSTNQKNYLAWYQQKPGQSPKLLIYWASNATSGVPDRFSGSGSGTDFTLTISSVQAEDVAVYYCQQYYSYRTFGGGTKLEIKR
- Kd: 0.53 nM

B7: Ibalizumab light chain mutant LM65 (antibody, human IgG1, kappa, V domains shown)
VH: QVQLQQSGPEVVKPGASVKMSCKASGYTFTSYVIHWVRQKPGQGLDWIGYINPYNDGTDYDEKFKGKATLTSDTSTSTAYMELSSLRSEDTAVYYCAREKDNYATGAWFAYWGQGTLVTVSS
VL: DIVMTQSPDSLAVSLGERVTMNCKSSQSLLYSTNQKNYLAWYQQKPGQSPKLLIYWASTRESGVPDRFSGNATGTDFTLTISSVQAEDVAVYYCQQYYSYRTFGGGTKLEIKR
- Kd: 1.5 nM
